Test results from PMC3517901, “The TSC1-TSC2 complex consists of multiple TSC1 and TSC2 subunits” (BMC Biochemistry, 2012).

B1: TSC2, untagged, full-length (transfected) (natural protein)
chain: not shown
notes: TSC2; also called untagged TSC2; source: HEK 293T, transfected, in lysate; also co-purified with TSC1-TEV-myc on anti-myc beads and released by AcTEV

Legend:
[1] = molecular target: B1; experiment: SEC; TSC1-TSC2 complex from cotransfected HEK 293T cells, purified on anti-myc affinity beads, released by AcTEV overnight at 4°C, Coomassie gel and Superose 6 gel filtration, fractions immunoblotted; details: both partners purified
[2] = molecular target: the molecule itself; experiment: as above

Binder | binding result [1] | binding result [2]
TSC1-TEV-myc, released from anti-myc beads by AcTEV (natural protein, UniProt Q92574 1-1164, looked up, TSC1 with an AcTEV recognition site (ENLYFQG) introduced by site directed mutagenesis before the myc tag; after cleavage part of the site (ENLYFQ) would remain on TSC1; The position of the site is in Additional file 1) MAQQANVGELLAMLDSPMLGVRDDVTAVFKENLNSDRGPMLVNTLVDYYLETSSQPALHILTTLQEPHDKHLLDRINEYVGKAATRLSILSLLGHVIRLQPSWKHKLSQAPLLPSLLKCLKMDTDVVVLTTGVLVLITMLPMIPQSGKQHLLDFFDIFGRLSSWCLKKPGHVAEVYLVHLHASVYALFHRLYGMYPCNFVSFLRSHYSMKENLETFEEVVKPMMEHVRIHPELVTGSKDHELDPRRWKRLETHDVVIECAKISLDPTEASYEDGYSVSHQISARFPHRSADVTTSPYADTQNSYGCATSTPYSTSRLMLLNMPGQLPQTLSSPSTRLITEPPQATLWSPSMVCGMTTPPTSPGNVPPDLSHPYSKVFGTTAGGKGTPLGTPATSPPPAPLCHSDDYVHISLPQATVTPPRKEERMDSARPCLHRQHHLLNDRGSEEPPGSKGSVTLSDLPGFLGDLASEEDSIEKDKEEAAISRELSEITTAEAEPVVPRGGFDSPFYRDSLPGSQRKTHSAASSSQGASVNPEPLHSSLDKLGPDTPKQAFTPIDLPCGSADESPAGDRECQTSLETSIFTPSPCKIPPPTRVGFGSGQPPPYDHLFEVALPKTAHHFVIRKTEELLKKAKGNTEEDGVPSTSPMEVLDRLIQQGADAHSKELNKLPLPSKSVDWTHFGGSPPSDEIRTLRDQLLLLHNQLLYERFKRQQHALRNRRLLRKVIKAAALEEHNAAMKDQLKLQEKDIQMWKVSLQKEQARYNQLQEQRDTMVTKLHSQIRQLQHDREEFYNQSQELQTKLEDCRNMIAELRIELKKANNKVCHTELLLSQVSQKLSNSESVQQQMEFLNRQLLVLGEVNELYLEQLQNKHSDTTKEVEMMKAAYRKELEKNRSHVLQQTQRLDTSQKRILELESHLAKKDHLLLEQKKYLEDVKLQARGQLQAAESRYEAQKRITQVFELEILDLYGRLEKDGLLKKLEEEKAEAAEAAEERLDCCNDGCSDSMVGHNEEASGHNGETKTPRPSSARGSSGSRGGGGSSSSSSELSTPEKPPHQRAGPFSSRWETTMGEASASIPTTVGSLPSSKSFLGMKARELFRNKSESQCDEDGMTSSLSESLKTELGKDLGVEAKIPLNLDGPHPSPPTPDSVGQLHIMDYNETHHEHS | binds | –
B1 | – | binds
